According to article doi:10.1101/2022.02.05.479199:

Molecular target: RPA-DBD-D-Cy3;Rtt105-Cy5 (C13S) C13S (Saccharomyces cerevisiae;Saccharomyces cerevisiae?) (UniProt P22336+P26754+P26755+P40063)
Assay: FRET titration

Sequence of RPA-DBD-D-Cy3;Rtt105-Cy5 (C13S) C13S (Saccharomyces cerevisiae;Saccharomyces cerevisiae?) (P22336 whole entry, chain 1 of 4): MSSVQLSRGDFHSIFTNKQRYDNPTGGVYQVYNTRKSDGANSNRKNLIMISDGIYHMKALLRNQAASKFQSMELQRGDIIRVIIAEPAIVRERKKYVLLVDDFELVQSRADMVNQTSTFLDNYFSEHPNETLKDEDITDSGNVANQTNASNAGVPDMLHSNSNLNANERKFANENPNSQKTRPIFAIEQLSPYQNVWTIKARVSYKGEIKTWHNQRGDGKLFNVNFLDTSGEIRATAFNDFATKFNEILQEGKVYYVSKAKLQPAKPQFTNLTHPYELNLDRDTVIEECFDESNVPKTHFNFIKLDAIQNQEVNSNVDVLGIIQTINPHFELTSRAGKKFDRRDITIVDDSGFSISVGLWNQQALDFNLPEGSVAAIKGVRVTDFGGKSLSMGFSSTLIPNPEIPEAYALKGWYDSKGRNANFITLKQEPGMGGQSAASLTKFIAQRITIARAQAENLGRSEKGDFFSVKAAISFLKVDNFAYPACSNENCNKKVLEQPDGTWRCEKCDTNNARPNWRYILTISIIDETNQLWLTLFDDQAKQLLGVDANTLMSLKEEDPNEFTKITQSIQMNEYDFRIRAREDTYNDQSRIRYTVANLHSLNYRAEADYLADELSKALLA
Sequence of RPA-DBD-D-Cy3;Rtt105-Cy5 (C13S) C13S (Saccharomyces cerevisiae;Saccharomyces cerevisiae?) (P26754 whole entry, chain 2 of 4): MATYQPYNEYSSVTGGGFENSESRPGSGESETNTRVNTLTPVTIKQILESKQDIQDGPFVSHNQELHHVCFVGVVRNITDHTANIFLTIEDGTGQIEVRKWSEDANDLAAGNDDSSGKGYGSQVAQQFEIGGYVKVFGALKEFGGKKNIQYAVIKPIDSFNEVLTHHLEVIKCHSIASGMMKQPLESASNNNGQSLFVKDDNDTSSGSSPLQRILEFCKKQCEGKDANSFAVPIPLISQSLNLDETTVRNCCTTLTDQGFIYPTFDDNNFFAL
Sequence of RPA-DBD-D-Cy3;Rtt105-Cy5 (C13S) C13S (Saccharomyces cerevisiae;Saccharomyces cerevisiae?) (P26755 whole entry, chain 3 of 4): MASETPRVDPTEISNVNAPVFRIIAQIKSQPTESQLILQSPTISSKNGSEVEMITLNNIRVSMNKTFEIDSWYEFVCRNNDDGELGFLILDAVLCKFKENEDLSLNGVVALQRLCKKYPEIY
Sequence of RPA-DBD-D-Cy3;Rtt105-Cy5 (C13S) C13S (Saccharomyces cerevisiae;Saccharomyces cerevisiae?) (P40063 whole entry C13S, chain 4 of 4): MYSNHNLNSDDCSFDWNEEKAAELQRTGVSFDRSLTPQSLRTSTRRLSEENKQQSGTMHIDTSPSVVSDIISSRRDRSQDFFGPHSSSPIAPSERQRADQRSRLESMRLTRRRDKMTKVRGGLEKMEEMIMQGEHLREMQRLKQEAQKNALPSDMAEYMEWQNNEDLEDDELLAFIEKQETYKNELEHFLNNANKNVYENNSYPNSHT

| Sequence | K half |
| --- | --- |
| TTTTTTTTTTTTTTTTTTTTTTTTTTTTTTTTTTT [(dT)35] | 130 nM |
| TTTTTTTTTTTTTTTTTTTTTTTTTTTTTTTTTTTTTTTTTTTTTTTTTTTTTTTTTTTTTTTTTTTTTT [(dT)70] | 42.8 nM |
